Reference: patent publication US20100099610A1 (published 2010)

Key:
Test in all cases: cell-based or functional assay
[1] = target: wild type human growth hormone (human, UniProt P01241 27-217)
hGHQ141N = hGHQ141N (human, UniProt P01241 27-217)
hGHQ40N = hGHQ40N (human, UniProt P01241 27-217)
Chain of hGHQ40N (P01241 27-217 Q66N): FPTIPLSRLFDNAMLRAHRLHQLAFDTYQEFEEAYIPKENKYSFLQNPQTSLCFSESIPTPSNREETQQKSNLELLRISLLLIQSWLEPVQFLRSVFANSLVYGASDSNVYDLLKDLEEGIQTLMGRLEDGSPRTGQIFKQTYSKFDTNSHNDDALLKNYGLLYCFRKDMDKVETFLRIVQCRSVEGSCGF

Chain of hGHQ141N (P01241 27-217 Q167N): as the sequence (P01241 27-217 Q66N) above, with N40Q, Q141N counted along it
Chain of wild type human growth hormone (P01241 27-217): as the sequence (P01241 27-217 Q66N) above, with N40Q counted along it

Binder | RS (relative selectivity against AlaPro-mTGase from S. mobaraensis) [1] | RSA Q40 (hGHQ141N) | RSA Q141 (hGHQ40N)
GlyPro-mTGase_Y75A from S. ladakanum (enzyme) GPDSDERVTPPAEPLDRMPDPYRPSYGRAETIVNNYIRKWQQVYSHRDGRKQQMTEEQREWLSYGCVGVTWVNSGQAPTNRLAFAFFDEDKYKNELKNGRPRSGETRAEFEGRVAKDSFDEAKGFQRARDVASVMNKALENAHDEGAYLDNLKKELANGNDALRNEDARSPFYSALRNTPSFKDRNGGNHDPSKMKAVIYSKHFWSGQDRSGSSDKRKYGDPEAFRPDRGTGLVDMSRDRNIPRSPTSPGESFVNFDYGWFGAQTEADADKTVWTHGNHYHAPNGSLGAMHVYESKFRNWSDGYSDFDRGAYVVTFVPKSWNTAPDKVKQGWP | 3 | 0.03 relative to wild type TGase | 0.06 relative to wild type TGase
S. ladakanum GlyPro-TGase mutant S250C (enzyme) GPDSDERVTPPAEPLDRMPDPYRPSYGRAETIVNNYIRKWQQVYSHRDGRKQQMTEEQREWLSYGCVGVTWVNSGQYPTNRLAFAFFDEDKYKNELKNGRPRSGETRAEFEGRVAKDSFDEAKGFQRARDVASVMNKALENAHDEGAYLDNLKKELANGNDALRNEDARSPFYSALRNTPSFKDRNGGNHDPSKMKAVIYSKHFWSGQDRSGSSDKRKYGDPEAFRPDRGTGLVDMSRDRNIPRSPTSPGECFVNFDYGWFGAQTEADADKTVWTHGNHYHAPNGSLGAMHVYESKFRNWSDGYSDFDRGAYVVTFVPKSWNTAPDKVKQGWP |  | 3.02 relative to wild type TGase | 5.34 relative to wild type TGase
GlyPro-mTGase_Y62H_Y75F from S. ladakanum (enzyme) GPDSDERVTPPAEPLDRMPDPYRPSYGRAETIVNNYIRKWQQVYSHRDGRKQQMTEEQREWLSHGCVGVTWVNSGQFPTNRLAFAFFDEDKYKNELKNGRPRSGETRAEFEGRVAKDSFDEAKGFQRARDVASVMNKALENAHDEGAYLDNLKKELANGNDALRNEDARSPFYSALRNTPSFKDRNGGNHDPSKMKAVIYSKHFWSGQDRSGSSDKRKYGDPEAFRPDRGTGLVDMSRDRNIPRSPTSPGESFVNFDYGWFGAQTEADADKTVWTHGNHYHAPNGSLGAMHVYESKFRNWSDGYSDFDRGAYVVTFVPKSWNTAPDKVTQGWP | 6.4 |  | 
GlyPro-mTGase_Y75F from S. ladakanum (enzyme) GPDSDERVTPPAEPLDRMPDPYRPSYGRAETIVNNYIRKWQQVYSHRDGRKQQMTEEQREWLSYGCVGVTWVNSGQFPTNRLAFAFFDEDKYKNELKNGRPRSGETRAEFEGRVAKDSFDEAKGFQRARDVASVMNKALENAHDEGAYLDNLKKELANGNDALRNEDARSPFYSALRNTPSFKDRNGGNHDPSKMKAVIYSKHFWSGQDRSGSSDKRKYGDPEAFRPDRGTGLVDMSRDRNIPRSPTSPGESFVNFDYGWFGAQTEADADKTVWTHGNHYHAPNGSLGAMHVYESKFRNWSDGYSDFDRGAYVVTFVPKSWNTAPDKVKQGWP | 5.1 |  | 
GlyPro-mTGase from S. ladakanum (enzyme) GPDSDERVTPPAEPLDRMPDPYRPSYGRAETIVNNYIRKWQQVYSHRDGRKQQMTEEQREWLSYGCVGVTWVNSGQYPTNRLAFAFFDEDKYKNELKNGRPRSGETRAEFEGRVAKDSFDEAKGFQRARDVASVMNKALENAHDEGAYLDNLKKELANGNDALRNEDARSPFYSALRNTPSFKDRNGGNHDPSKMKAVIYSKHFWSGQDRSGSSDKRKYGDPEAFRPDRGTGLVDMSRDRNIPRSPTSPGESFVNFDYGWFGAQTEADADKTVWTHGNHYHAPNGSLGAMHVYESKFRNWSDGYSDFDRGAYVVTFVPKSWNTAPDKVKQGWP | 1.8 |  | 
GlyPro-mTGase_Y62H_Y75N from S. ladakanum (enzyme) GPDSDERVTPPAEPLDRMPDPYRPSYGRAETIVNNYIRKWQQVYSHRDGRKQQMTEEQREWLSHGCVGVTWVNSGQNPTNRLAFAFFDEDKYKNELKNGRPRSGETRAEFEGRVAKDSFDEAKGFQRARDVASVMNKALENAHDEGAYLDNLKKELANGNDALRNEDARSPFYSALRNTPSFKDRNGGNHDPSKMKAVIYSKHFWSGQDRSGSSDKRKYGDPEAFRPDRGTGLVDMSRDRNIPRSPTSPGESFVNFDYGWFGAQTEADADKTVWTHGNHYHAPNGSLGAMHVYESKFRNWSDGYSDFDRGAYVVTFVPKSWNTAPDKVKQGWP | 4.6 |  | 
GlyPro-mTGase_Y75N from S. ladakanum (enzyme) GPDSDERVTPPAEPLDRMPDPYRPSYGRAETIVNNYIRKWQQVYSHRDGRKQQMTEEQREWLSYGCVGVTWVNSGQNPTNRLAFAFFDEDKYKNELKNGRPRSGETRAEFEGRVAKDSFDEAKGFQRARDVASVMNKALENAHDEGAYLDNLKKELANGNDALRNEDARSPFYSALRNTPSFKDRNGGNHDPSKMKAVIYSKHFWSGQDRSGSSDKRKYGDPEAFRPDRGTGLVDMSRDRNIPRSPTSPGESFVNFDYGWFGAQTEADADKTVWTHGNHYHAPNGSLGAMHVYESKFRNWSDGYSDFDRGAYVVTFVPKSWNTAPDKVKQGWP | 3.4 |  | 
AlaPro-mTGase from S. mobaraensis (enzyme) APDSDDRVTPPAEPLDRMPDPYRPSYGRAETVVNNYIRKWQQVYSHRDGRKQQMTEEQREWLSYGCVGVTWVNSGQYPTNRLAFASFDEDRFKNELKNGRPRSGETRAEFEGRVAKESFDEEKGFQRAREVASVMNRALENAHDESAYLDNLKKELANGNDALRNEDARSPFYSALRNTPSFKERNGGNHDPSRMKAVIYSKHFWSGQDRSSSADKRKYGDPDAFRPAPGTGLVDMSRDRNIPRSPTSPGEGFVNFDYGWFGAQTEADADKTVWTHGNHYHAPNGSLGAMHVYESKFRNWSEGYSDFDRGAYVITFIPKSWNTAPDKVKQGWP | 1 |  | 

Results, then the binder that gave them:

RS (relative selectivity against AlaPro-mTGase from S. mobaraensis) [1] | RSA Q40 (hGHQ141N) | RSA Q141 (hGHQ40N) | Binder
 | 1.9 relative to wild type TGase | 3.59 relative to wild type TGase | S. ladakanum GlyPro-TGase mutant S250L (enzyme) GPDSDERVTPPAEPLDRMPDPYRPSYGRAETIVNNYIRKWQQVYSHRDGRKQQMTEEQREWLSYGCVGVTWVNSGQYPTNRLAFAFFDEDKYKNELKNGRPRSGETRAEFEGRVAKDSFDEAKGFQRARDVASVMNKALENAHDEGAYLDNLKKELANGNDALRNEDARSPFYSALRNTPSFKDRNGGNHDPSKMKAVIYSKHFWSGQDRSGSSDKRKYGDPEAFRPDRGTGLVDMSRDRNIPRSPTSPGELFVNFDYGWFGAQTEADADKTVWTHGNHYHAPNGSLGAMHVYESKFRNWSDGYSDFDRGAYVVTFVPKSWNTAPDKVKQGWP
 | 0.76 relative to wild type TGase | 1.04 relative to wild type TGase | S. ladakanum GlyPro-TGase mutant S250D (enzyme) GPDSDERVTPPAEPLDRMPDPYRPSYGRAETIVNNYIRKWQQVYSHRDGRKQQMTEEQREWLSYGCVGVTWVNSGQYPTNRLAFAFFDEDKYKNELKNGRPRSGETRAEFEGRVAKDSFDEAKGFQRARDVASVMNKALENAHDEGAYLDNLKKELANGNDALRNEDARSPFYSALRNTPSFKDRNGGNHDPSKMKAVIYSKHFWSGQDRSGSSDKRKYGDPEAFRPDRGTGLVDMSRDRNIPRSPTSPGEDFVNFDYGWFGAQTEADADKTVWTHGNHYHAPNGSLGAMHVYESKFRNWSDGYSDFDRGAYVVTFVPKSWNTAPDKVKQGWP
 | 1.77 relative to wild type TGase | 2.42 relative to wild type TGase | S. ladakanum GlyPro-TGase mutant S250G (enzyme) GPDSDERVTPPAEPLDRMPDPYRPSYGRAETIVNNYIRKWQQVYSHRDGRKQQMTEEQREWLSYGCVGVTWVNSGQYPTNRLAFAFFDEDKYKNELKNGRPRSGETRAEFEGRVAKDSFDEAKGFQRARDVASVMNKALENAHDEGAYLDNLKKELANGNDALRNEDARSPFYSALRNTPSFKDRNGGNHDPSKMKAVIYSKHFWSGQDRSGSSDKRKYGDPEAFRPDRGTGLVDMSRDRNIPRSPTSPGEGFVNFDYGWFGAQTEADADKTVWTHGNHYHAPNGSLGAMHVYESKFRNWSDGYSDFDRGAYVVTFVPKSWNTAPDKVKQGWP
 | 1.85 relative to wild type TGase | 2.63 relative to wild type TGase | S. ladakanum GlyPro-TGase mutant S250F (enzyme) GPDSDERVTPPAEPLDRMPDPYRPSYGRAETIVNNYIRKWQQVYSHRDGRKQQMTEEQREWLSYGCVGVTWVNSGQYPTNRLAFAFFDEDKYKNELKNGRPRSGETRAEFEGRVAKDSFDEAKGFQRARDVASVMNKALENAHDEGAYLDNLKKELANGNDALRNEDARSPFYSALRNTPSFKDRNGGNHDPSKMKAVIYSKHFWSGQDRSGSSDKRKYGDPEAFRPDRGTGLVDMSRDRNIPRSPTSPGEFFVNFDYGWFGAQTEADADKTVWTHGNHYHAPNGSLGAMHVYESKFRNWSDGYSDFDRGAYVVTFVPKSWNTAPDKVKQGWP
 | 1.4 relative to wild type TGase | 2.25 relative to wild type TGase | S. ladakanum GlyPro-TGase mutant S250H (enzyme) GPDSDERVTPPAEPLDRMPDPYRPSYGRAETIVNNYIRKWQQVYSHRDGRKQQMTEEQREWLSYGCVGVTWVNSGQYPTNRLAFAFFDEDKYKNELKNGRPRSGETRAEFEGRVAKDSFDEAKGFQRARDVASVMNKALENAHDEGAYLDNLKKELANGNDALRNEDARSPFYSALRNTPSFKDRNGGNHDPSKMKAVIYSKHFWSGQDRSGSSDKRKYGDPEAFRPDRGTGLVDMSRDRNIPRSPTSPGEHFVNFDYGWFGAQTEADADKTVWTHGNHYHAPNGSLGAMHVYESKFRNWSDGYSDFDRGAYVVTFVPKSWNTAPDKVKQGWP
